The record followed here is paper PMC8032985.

By Kd is commonly meant the constant that tells how readily two partners part at equilibrium. A lower Kd goes with higher affinity.

Assay in all cases: MST; NT-647-NHS-labelled PP2A subunit at 20 nM as target, 12-point twofold dilution series of unlabelled ARPP as ligand; SEC buffer with 0.05% Tween-20; triplicate; single-site binding model
Assay [1] concerns the target PP2A scaffolding subunit PR65α, full length (UniProt P30153).
In assay [2] the target is PP2A regulatory subunit B56γ.
PP2A regulatory subunit B56γ, sequence (Q13362 whole entry): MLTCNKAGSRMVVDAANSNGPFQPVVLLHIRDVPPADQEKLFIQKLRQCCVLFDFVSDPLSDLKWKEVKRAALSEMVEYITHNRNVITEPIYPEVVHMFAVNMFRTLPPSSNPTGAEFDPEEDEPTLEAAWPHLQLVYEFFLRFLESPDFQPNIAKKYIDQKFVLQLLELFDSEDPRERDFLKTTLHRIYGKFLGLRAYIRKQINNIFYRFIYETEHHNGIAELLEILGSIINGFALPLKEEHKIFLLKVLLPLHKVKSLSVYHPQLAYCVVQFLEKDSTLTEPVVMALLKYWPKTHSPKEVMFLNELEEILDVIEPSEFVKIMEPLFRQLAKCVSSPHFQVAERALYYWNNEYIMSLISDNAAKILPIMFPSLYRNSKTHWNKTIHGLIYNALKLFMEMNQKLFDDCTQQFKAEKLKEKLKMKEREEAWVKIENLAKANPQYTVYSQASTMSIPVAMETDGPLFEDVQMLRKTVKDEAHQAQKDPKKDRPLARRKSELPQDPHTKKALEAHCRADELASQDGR
Assay [3] has as its target PP2A regulatory subunit B56α.

PP2A regulatory subunit B56α, sequence (Q15172 whole entry): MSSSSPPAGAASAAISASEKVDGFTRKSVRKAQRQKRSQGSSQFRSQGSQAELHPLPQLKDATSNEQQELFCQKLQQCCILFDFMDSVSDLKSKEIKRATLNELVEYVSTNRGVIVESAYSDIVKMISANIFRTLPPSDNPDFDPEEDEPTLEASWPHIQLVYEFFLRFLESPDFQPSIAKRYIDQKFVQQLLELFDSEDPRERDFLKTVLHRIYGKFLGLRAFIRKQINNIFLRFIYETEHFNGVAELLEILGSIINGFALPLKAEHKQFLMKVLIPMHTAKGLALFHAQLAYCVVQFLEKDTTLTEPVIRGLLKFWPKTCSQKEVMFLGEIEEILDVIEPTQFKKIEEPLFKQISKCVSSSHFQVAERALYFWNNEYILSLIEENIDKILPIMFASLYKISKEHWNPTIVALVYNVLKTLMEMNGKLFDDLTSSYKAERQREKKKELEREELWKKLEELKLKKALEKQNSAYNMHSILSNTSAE
PP2A scaffolding subunit PR65α, full length, sequence (P30153 whole entry): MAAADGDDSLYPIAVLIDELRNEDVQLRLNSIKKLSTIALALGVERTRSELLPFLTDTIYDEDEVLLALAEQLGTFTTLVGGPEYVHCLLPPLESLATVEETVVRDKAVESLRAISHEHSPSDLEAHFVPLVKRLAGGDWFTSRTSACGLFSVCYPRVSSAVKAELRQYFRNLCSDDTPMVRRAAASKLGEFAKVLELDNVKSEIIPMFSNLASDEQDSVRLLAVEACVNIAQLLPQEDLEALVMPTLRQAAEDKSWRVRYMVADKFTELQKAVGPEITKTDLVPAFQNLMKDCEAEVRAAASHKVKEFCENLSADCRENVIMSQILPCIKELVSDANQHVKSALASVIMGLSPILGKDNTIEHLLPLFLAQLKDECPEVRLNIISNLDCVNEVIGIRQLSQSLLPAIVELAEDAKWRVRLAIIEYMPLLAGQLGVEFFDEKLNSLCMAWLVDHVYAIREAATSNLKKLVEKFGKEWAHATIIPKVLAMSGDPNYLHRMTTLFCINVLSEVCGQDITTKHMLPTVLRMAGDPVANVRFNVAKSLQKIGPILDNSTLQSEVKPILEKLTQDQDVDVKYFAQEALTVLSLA

For the substance “ARPP-16 (splice variant of ARPP-19), wild type (natural protein)”, the equilibrium dissociation constant (Kd) in assay [1] stood at 5.4 µM; in assay [2], 710 µM.
Substance “ARPP-16 (splice variant of ARPP-19), wild type (natural protein; other documents disagree on this pair)” yielded an equilibrium dissociation constant (Kd) in assay [3] of 80 µM.
Regarding “ARPP-16 S46E phosphomimicking mutant (natural protein)”, the results for the equilibrium dissociation constant (Kd) in assay [1] and in assay [2] were 1 µM and 440 µM, respectively.
As to “ARPP-16 S46E phosphomimicking mutant (natural protein; other documents disagree on this pair)”, the Kd in assay [3] worked out at 110 µM.
With “ARPP-16 S88E phosphomimicking mutant (natural protein)”, the results for the Kd in assay [1] and in assay [2] were 3.3 µM and 200 µM, respectively.
For “ARPP-16 S88E phosphomimicking mutant (natural protein; other documents disagree on this pair)”, in assay [3], the Kd was 130 µM.
